Our source for the Kd values is article PMC5779224 (2017).

Holding throughout (test): ITC
In general terms: In ITC the heat of successive injections is recorded.

The target in experiment [1] is T1, AnkB 28–873 (MBD + full AI-c) (human, UniProt Q01484-2 28-873).
T1 chain: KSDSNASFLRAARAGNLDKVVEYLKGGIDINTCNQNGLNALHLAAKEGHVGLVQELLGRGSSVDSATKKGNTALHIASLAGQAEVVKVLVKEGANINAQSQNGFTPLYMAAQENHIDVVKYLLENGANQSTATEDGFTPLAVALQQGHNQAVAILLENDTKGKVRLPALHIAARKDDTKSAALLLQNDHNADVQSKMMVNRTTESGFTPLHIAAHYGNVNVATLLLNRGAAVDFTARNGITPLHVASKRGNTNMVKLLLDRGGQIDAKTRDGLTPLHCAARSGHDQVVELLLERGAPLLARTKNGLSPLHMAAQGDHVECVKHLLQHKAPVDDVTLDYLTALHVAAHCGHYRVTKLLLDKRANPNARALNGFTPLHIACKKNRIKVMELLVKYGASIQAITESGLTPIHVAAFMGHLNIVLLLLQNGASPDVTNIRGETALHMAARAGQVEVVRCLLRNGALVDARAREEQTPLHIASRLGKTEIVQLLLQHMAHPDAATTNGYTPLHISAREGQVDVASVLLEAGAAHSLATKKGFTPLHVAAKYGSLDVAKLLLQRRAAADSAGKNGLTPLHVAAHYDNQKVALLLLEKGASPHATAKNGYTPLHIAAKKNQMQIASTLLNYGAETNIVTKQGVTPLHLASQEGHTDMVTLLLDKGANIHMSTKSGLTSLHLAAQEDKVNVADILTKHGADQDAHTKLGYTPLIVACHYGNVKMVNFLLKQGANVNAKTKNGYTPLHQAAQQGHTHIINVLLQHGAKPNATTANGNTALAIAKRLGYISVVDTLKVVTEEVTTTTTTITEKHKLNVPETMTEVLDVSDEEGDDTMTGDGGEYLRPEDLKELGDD

A further experiment has as its target T2, AnkB R1-14 (Homo sapiens).
T2 chain: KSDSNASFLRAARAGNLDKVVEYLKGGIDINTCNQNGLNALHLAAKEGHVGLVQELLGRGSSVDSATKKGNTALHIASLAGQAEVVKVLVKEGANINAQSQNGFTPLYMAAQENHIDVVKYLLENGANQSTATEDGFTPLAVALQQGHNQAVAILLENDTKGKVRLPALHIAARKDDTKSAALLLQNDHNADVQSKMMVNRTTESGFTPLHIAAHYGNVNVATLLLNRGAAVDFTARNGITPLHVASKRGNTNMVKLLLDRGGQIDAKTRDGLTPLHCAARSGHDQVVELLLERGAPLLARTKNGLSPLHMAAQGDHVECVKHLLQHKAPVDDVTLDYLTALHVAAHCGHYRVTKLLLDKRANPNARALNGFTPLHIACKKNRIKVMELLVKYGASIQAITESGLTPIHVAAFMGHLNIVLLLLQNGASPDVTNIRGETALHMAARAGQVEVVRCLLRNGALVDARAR

Another experiment has as its target T3, AnkB R6-24 (Homo sapiens).
T3 chain: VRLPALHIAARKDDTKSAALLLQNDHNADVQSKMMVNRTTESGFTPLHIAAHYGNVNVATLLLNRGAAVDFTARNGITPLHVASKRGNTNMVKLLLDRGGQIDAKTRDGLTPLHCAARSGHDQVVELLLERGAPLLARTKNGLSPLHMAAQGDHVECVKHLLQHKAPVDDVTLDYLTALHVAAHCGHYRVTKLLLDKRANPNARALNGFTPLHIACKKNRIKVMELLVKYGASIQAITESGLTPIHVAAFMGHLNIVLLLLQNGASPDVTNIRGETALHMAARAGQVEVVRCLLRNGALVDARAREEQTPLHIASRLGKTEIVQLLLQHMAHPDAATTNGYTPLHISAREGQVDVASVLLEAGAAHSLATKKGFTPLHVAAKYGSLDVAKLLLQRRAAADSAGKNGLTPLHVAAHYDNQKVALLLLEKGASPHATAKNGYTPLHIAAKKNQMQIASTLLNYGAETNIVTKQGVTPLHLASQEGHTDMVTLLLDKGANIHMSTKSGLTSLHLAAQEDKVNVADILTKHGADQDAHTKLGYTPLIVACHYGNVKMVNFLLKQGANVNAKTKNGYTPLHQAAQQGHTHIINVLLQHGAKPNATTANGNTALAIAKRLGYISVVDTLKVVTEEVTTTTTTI

B1: AnkB entire linker (aa 828–965) (domain or fragment)
chain: TEKHKLNVPETMTEVLDVSDEEGDDTMTGDGGEYLRPEDLKELGDDSLPSSQFLDGMNYLRYSLEGGRSDSLRSFSSDRSHTLSHASYLRDSAVMDDSVVIPSHQVSTLAKEAERNSYRLSWGTENLDNVALSSSPIH
On to B1, for which the figures for the Kd (in experiment [1]; with AnkB R1-14; with AnkB R6-24) were 2.2 µM, 4.1 µM and 4.7 µM, respectively.

The term Kd denotes a measure of binding affinity in units of concentration.
